The test has as its target human C1q (human) (UniProt P02745). The experiment in a line: C1q (50 nM) with 100 nM antibody on TNFa-activated HUVECs; bound C1q detected with biotinylated polyclonal anti-C1q and imaging; normalised to isotype IgG.
UniProt P02745, sequence (P02745 23-245, chain 1 of 3): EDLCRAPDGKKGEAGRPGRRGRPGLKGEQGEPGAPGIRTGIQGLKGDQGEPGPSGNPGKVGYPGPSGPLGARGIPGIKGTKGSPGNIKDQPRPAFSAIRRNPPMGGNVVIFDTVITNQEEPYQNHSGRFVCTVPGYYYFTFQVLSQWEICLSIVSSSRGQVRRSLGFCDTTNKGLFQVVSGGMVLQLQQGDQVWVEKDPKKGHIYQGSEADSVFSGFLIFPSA
UniProt P02745, sequence (chain, as listed by the source, chain 2 of 3): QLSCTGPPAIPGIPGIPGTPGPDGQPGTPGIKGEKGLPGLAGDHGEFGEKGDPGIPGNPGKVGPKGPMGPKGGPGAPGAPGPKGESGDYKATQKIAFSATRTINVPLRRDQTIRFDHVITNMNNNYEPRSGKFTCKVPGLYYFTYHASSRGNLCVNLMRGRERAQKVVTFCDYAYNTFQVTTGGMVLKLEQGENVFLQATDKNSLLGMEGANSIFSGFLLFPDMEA
UniProt P02745, sequence (chain, as listed by the source, chain 3 of 3): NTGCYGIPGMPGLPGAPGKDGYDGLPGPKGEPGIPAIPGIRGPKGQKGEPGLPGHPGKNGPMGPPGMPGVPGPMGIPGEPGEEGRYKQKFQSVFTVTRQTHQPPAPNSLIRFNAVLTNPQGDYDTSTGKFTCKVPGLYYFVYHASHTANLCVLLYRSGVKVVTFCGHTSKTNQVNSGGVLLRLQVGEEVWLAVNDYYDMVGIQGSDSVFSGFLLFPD

For the substance “control antibody comprising murine heavy and light chain variable regions of the anti-C1q antibody M1 (Annexon Biosciences) with hIgG1 and kappa constant regions”, the % inhibition of binding of C1q to activated endothelial cells amounted to 94%.

Source of the values: patent publication EP4670793A1.
